Experimental data from patent US20250171512A1.

Molecular target: human FGFR1c together with human beta-Klotho (KLB), stably expressed on CHO Flp-In cells (human) (UniProt P11362)
Assay: cell-based or functional assay

Chain of human FGFR1c together with human beta-Klotho (KLB), stably expressed on CHO Flp-In cells (human) (P11362 22-822, chain 1 of 2): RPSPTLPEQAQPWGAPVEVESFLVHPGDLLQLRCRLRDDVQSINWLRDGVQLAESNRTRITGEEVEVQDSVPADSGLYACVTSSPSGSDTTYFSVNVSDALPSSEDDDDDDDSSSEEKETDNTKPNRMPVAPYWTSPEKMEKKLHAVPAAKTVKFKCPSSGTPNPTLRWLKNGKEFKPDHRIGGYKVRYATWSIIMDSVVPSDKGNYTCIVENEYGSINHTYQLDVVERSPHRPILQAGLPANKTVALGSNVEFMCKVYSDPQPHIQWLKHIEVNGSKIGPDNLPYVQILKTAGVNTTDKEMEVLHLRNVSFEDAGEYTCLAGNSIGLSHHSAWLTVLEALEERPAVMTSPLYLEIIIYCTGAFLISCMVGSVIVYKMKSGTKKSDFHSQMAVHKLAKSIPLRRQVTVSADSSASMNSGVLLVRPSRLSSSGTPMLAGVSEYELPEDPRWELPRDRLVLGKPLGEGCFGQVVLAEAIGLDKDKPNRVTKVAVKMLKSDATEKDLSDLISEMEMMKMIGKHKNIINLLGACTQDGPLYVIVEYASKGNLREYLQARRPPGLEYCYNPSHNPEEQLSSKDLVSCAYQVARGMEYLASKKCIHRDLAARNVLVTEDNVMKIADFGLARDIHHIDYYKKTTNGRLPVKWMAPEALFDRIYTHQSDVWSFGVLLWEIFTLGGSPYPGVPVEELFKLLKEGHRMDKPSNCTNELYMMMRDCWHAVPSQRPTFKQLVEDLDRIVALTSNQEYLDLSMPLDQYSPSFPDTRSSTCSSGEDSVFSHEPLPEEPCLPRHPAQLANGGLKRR
Chain of human FGFR1c together with human beta-Klotho (KLB), stably expressed on CHO Flp-In cells (human) (Q86Z14 whole entry, chain 2 of 2, further chain): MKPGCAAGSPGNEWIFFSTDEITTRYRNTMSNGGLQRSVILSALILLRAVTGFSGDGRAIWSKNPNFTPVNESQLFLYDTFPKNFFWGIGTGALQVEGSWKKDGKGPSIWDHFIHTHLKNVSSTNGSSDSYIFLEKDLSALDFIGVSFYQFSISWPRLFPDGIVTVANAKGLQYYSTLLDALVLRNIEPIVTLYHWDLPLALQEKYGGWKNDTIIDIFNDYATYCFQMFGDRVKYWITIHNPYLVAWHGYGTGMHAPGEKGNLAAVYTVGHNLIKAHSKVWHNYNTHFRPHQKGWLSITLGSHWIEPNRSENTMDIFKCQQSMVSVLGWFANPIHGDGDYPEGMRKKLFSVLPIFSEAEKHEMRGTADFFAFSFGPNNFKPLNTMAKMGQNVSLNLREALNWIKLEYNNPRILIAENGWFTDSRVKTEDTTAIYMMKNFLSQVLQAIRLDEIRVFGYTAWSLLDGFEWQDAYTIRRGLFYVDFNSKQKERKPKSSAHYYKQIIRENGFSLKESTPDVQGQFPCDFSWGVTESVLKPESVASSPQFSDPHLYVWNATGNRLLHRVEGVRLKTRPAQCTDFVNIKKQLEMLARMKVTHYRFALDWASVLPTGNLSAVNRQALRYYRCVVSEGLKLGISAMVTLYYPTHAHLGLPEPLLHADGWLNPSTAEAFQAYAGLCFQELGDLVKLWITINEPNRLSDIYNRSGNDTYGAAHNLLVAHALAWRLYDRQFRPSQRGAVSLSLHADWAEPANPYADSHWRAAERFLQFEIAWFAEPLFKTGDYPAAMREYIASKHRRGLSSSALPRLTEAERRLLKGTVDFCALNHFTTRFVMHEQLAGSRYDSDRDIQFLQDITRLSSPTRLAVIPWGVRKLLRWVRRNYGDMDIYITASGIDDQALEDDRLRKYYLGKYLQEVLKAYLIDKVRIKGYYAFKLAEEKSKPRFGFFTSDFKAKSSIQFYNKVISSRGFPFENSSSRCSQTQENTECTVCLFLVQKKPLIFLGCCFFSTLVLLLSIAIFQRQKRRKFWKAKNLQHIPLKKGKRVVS
Chain of FGF21 P185-P186 deleted (SEQ ID NO: 59) (Q9NSA1 other isoform, or with tags, fused parts or gaps): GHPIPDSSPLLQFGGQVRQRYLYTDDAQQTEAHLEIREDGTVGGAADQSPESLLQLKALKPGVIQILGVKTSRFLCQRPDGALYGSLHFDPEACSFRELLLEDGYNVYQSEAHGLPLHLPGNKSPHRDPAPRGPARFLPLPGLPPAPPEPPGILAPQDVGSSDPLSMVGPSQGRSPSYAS
Chain of FGF21 S204 deleted (SEQ ID NO: 65) (Q9NSA1 other isoform, or with tags, fused parts or gaps): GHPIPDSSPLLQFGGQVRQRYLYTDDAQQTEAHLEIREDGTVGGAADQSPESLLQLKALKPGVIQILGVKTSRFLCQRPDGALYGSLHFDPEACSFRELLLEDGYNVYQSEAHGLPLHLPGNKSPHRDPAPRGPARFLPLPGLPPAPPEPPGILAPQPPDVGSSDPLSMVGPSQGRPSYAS
Chain of FGF21 Q201 deleted (SEQ ID NO: 62) (Q9NSA1 other isoform, or with tags, fused parts or gaps): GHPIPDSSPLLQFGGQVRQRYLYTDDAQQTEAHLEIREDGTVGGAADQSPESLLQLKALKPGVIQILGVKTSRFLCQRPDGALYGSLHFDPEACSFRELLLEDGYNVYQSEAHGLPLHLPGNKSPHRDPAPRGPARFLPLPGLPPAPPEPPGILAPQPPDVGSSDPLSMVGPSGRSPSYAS
Chain of FGF21 R203 deleted (SEQ ID NO: 64) (Q9NSA1 other isoform, or with tags, fused parts or gaps): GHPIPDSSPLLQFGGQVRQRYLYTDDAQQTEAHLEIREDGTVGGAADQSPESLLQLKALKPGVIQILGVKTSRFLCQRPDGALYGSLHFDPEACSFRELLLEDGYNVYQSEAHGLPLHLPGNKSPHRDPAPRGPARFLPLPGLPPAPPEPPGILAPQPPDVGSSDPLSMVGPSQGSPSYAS
Chain of FGF21 S206 deleted (SEQ ID NO: 67) (Q9NSA1 other isoform, or with tags, fused parts or gaps): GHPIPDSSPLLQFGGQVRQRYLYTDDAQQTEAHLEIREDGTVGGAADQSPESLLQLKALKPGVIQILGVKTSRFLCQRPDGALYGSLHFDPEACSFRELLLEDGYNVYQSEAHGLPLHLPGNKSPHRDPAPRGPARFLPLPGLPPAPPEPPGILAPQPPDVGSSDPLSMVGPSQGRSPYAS
Chain of FGF21 Y207 deleted (SEQ ID NO: 68) (Q9NSA1 other isoform, or with tags, fused parts or gaps): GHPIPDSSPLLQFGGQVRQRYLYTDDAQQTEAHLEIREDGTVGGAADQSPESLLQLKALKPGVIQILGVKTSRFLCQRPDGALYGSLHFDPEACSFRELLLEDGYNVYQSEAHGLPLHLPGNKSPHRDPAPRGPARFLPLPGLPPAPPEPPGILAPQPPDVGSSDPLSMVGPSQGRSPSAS

In the case of “FGF21 Q201 deleted (SEQ ID NO: 62) (from UniProt Q9NSA1 29-209) (ligand)”, the pERK ICW EC50 is reported as 1.91 nmol/L.

With “FGF21 P185-P186 deleted (SEQ ID NO: 59) (from UniProt Q9NSA1 29-209) (ligand)” the pERK ICW EC50 was 21.1 nmol/L.

“FGF21 Y207 deleted (SEQ ID NO: 68) (from UniProt Q9NSA1 29-206) (ligand)” showed a pERK ICW EC50 of 7.14 nmol/L.

“FGF21 P199S, S200P (SEQ ID NO: 9) (from UniProt Q9NSA1 29-209) (ligand)” showed a pERK ICW EC50 of 1.72 nmol/L.

Work on “FGF21 S76C, S79C (SEQ ID NO: 85) (from UniProt Q9NSA1 29-209) (ligand)” yielded a pERK ICW EC50 of 1.44 nmol/L.

“FGF21 H140C, L142C (SEQ ID NO: 82) (from UniProt Q9NSA1 29-209) (ligand)” gave a pERK ICW EC50 of 2.27 nmol/L.

Substance “FGF21 R203 deleted (SEQ ID NO: 64) (from UniProt Q9NSA1 29-209) (ligand)” has a pERK ICW EC50 of 6.69 nmol/L.

“FGF21 L80C, V96C (SEQ ID NO: 119) (from UniProt Q9NSA1 29-209) (ligand)” gave a pERK ICW EC50 of 17.9 nmol/L.

Substance “FGF21 R47C, P174C (SEQ ID NO: 90) (from UniProt Q9NSA1 29-209) (ligand)” has a pERK ICW EC50 of 14.5 nmol/L.

Work on “FGF21 H60C, S79C (SEQ ID NO: 75) (from UniProt Q9NSA1 29-209) (ligand)” yielded a pERK ICW EC50 of 67.1 nmol/L.

“FGF21 G108C, L142C (SEQ ID NO: 86) (from UniProt Q9NSA1 29-209) (ligand)” was tested, and the pERK ICW EC50 was 1.48 nmol/L.

Work on “FGF21 A59C, A73C (SEQ ID NO: 105) (from UniProt Q9NSA1 29-209) (ligand)” yielded a pERK ICW EC50 of 19.2 nmol/L.

In the case of “FGF21 S204 deleted (SEQ ID NO: 65) (from UniProt Q9NSA1 29-209) (ligand)”, the pERK ICW EC50 is reported as 25.7 nmol/L.

In the case of “FGF21 G198D (SEQ ID NO: 17) (from UniProt Q9NSA1 29-209) (ligand)”, the pERK ICW EC50 is reported as 4.94 nmol/L.

“FGF21 A72C, S79C, G108C, L142C (SEQ ID NO: 89) (from UniProt Q9NSA1 29-209) (ligand)” showed a pERK ICW EC50 of 8.24 nmol/L.

“FGF21 P199G (SEQ ID NO: 21) (from UniProt Q9NSA1 29-209) (ligand)” showed a pERK ICW EC50 of 1.65 nmol/L.

In the case of “FGF21 G198E (SEQ ID NO: 16) (from UniProt Q9NSA1 29-209) (ligand)”, the pERK ICW EC50 is reported as 4.53 nmol/L.

“FGF21 S206 deleted (SEQ ID NO: 67) (from UniProt Q9NSA1 29-205) (ligand)” was tested, and the pERK ICW EC50 was 31.9 nmol/L.

“FGF21 V197E (SEQ ID NO: 14) (from UniProt Q9NSA1 29-209) (ligand)” gave a pERK ICW EC50 of 31.4 nmol/L.

Work on “FGF21 A120C, A139C (SEQ ID NO: 114) (from UniProt Q9NSA1 29-209) (ligand)” yielded a pERK ICW EC50 of 22 nmol/L.
